Test results: the supplement of paper PMC9170038

These sequences were tested on MS2 coat protein (assay: apparent KD of MS2 coat protein, switch OFF state (with FMN for OFF switches, without FMN for ON switches); designed switch direction (-1 OFF switch, 1 ON switch): -1; higher = weaker reporter binding). Settings: FMN input: 0 or 200 uM; Eterna round: R93 (includes R88 designs).
Outline: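 For every design, apparent KD is the median of normalised binding-curve fits from its clusters. The RNA switches were transcribed on-chip from Illumina sequencing clusters and titrated with SNAP-549-labelled MS2 coat protein (twofold steps, 0.7 or 1.5 nM to 3 µM; 0.8–1.5 h to 10–20 min per step). Titrations used 100 mM Tris-HCl pH 7.5, 80 mM KCl, 4 mM MgCl2, without or with constant ligand.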

With “AAAAAGAUAGGAUAUACGAACAUGUCAAAAGACGUGAAGGGACAUGAGGAUCACCCAUGUAGAAGGGUUAAAAA [JL Wide Open 38]” as the sequence, how does the “apparent KD of MS2 coat protein” value read?
Its value is 0.0666 µM.

“AAAAAGCGAGGAUAUACAUGAGGAUCACCCAUGUGAAAAAAAAAAAAAAAAAAAAAAAGUAGAAGGCGCAAAAA [H20 RNA]” was tested. Which “apparent KD of MS2 coat protein” value did it give?
The value was 0.0392 µM.

“AAGAAGUGAGGAUAUCGAAGACAAAAAAAAAAAAAGUCGAACGAGAAGGCACAUGAGGAUCACCCAUGUAAGAA [shorter stack]” was tested. Which “apparent KD of MS2 coat protein” value did it give?
Its value is 0.0403 µM.

Which “apparent KD of MS2 coat protein” value does the source give for “GGUUUGGUAGGAUAUACAUGAGGAUCACCCAUGUGAGAGAAAAAAGUGAGAAAGAAAAGUAGAAGGACCGGACG [salish99-ex3-123]” here?
Its value is 0.102 µM.

Which “apparent KD of MS2 coat protein” value does the source give for “UAAAGACAUGAGGAUCACCCAUGUGAGGAUAUGUGAGACAACAGAACAUCAAGUACAAGCAGAAGGCACAGAAA [JR_Exc001_Sub019]” here?
The value was 0.0627 µM.

“GGUUGGCGAGGAUAUACAUGAGGAUCACCCAUGUGAGAGAAAAAAGUGAGAAAGAAAAGUAGAAGGCGCUGACA [salish99-ex3-03]” was tested. Which “apparent KD of MS2 coat protein” value did it give?
Its value is 0.283 µM.

With “AAAAAACAUGAGGAUCACCCAUGUUAGGAUAUGCAGAGGGAAAAAAAAAAAAAAAAAAGCAGAAGGAACAUAAA [Design1]” as the sequence, how does the “apparent KD of MS2 coat protein” value read?
The value was 0.0265 µM.

How did the “apparent KD of MS2 coat protein” value turn out when “AACAGGACAGGAUAUACAUGAGGAUCACCCAUGUAGGAAUUAAGCAGAGUACCACACAGUAGAAGGGUCAUGGA [Ruby 26]” was run?
Its value is 0.0304 µM.

With “AAAAAACAUGAGGAUCACCCAUGUCAGGAUAUCUGUAUAAAUAAAAAAAUAAAAAUACAGAGAAGGGACAAAAA [Ex1: 608]” as the sequence, how does the “apparent KD of MS2 coat protein” value read?
The value was 0.0517 µM.

How did the “apparent KD of MS2 coat protein” value turn out when “AAUACACAUGAGGAUCACCCAUGUAAGGAUAUCGAAAAAAAAAUAAACAAAAAACAAACGAGAAGGUACAAAAA [Exclusion 1 design 3]” was run?
Its value is 0.0336 µM.

With “GGAAAACAUGAGGAUCACCCAUGUGAGGAUAUCGAUGUCCAAAAAAAAGUGCGGGACUCGAGAAGGCACUUGGC [salish99-ex1-33]” as the sequence, how does the “apparent KD of MS2 coat protein” value read?
The value was 0.0343 µM.

“AGCACGUCAGGAUAUACGAACACAAAGGGUAACAACAAGGGACAUGAGGAUCACCCAUGUAGAAGGGACAAGCA [Diamond 95]” was tested. Which “apparent KD of MS2 coat protein” value did it give?
Its value is 0.0792 µM.

How did the “apparent KD of MS2 coat protein” value turn out when “AAAAAAUGAGGAUAUACAUGAGGAUCACCCAUGUAAAAGGUCAGGGUGGCGGAGGACGGUAGAAGGCAUAAAAA [Excls3-X]” was run?
The value was 0.0182 µM.

With “AAGAACGAAGGAUAUACAUGAGGAUCACCCAUGUAAAAGAAAGAAGGGAAAGAGAAAAGUAGAAGGUCGAAGAA [Usermaatre Piye]” as the sequence, how does the “apparent KD of MS2 coat protein” value read?
Its value is 0.0244 µM.

“GGAACACAUGAGGAUCACCCAUGUCAGGAUAUGUAGAUAAAAAGAAAAUAAAAUAAAAACAGAAGGGACAAAAG [May 3]” was tested. Which “apparent KD of MS2 coat protein” value did it give?
Its value is 0.0733 µM.

Which “apparent KD of MS2 coat protein” value does the source give for “AAAAAGUGAGGAUAUACGAAAAAAAAAAAAAAAAAAGGUGAACAUGAGGAUCACCCAUGUAGAAGGCACAAAAA [Black Design]” here?
Its value is 0.312 µM.

With “AAAAAGUAAGGAUAUACAAAAGAAAACACAAAAAAAAAAAAACAUGAGGAUCACCCAUGUAGAAGGUACAAAAA [Ex2 Malc#1]” as the sequence, how does the “apparent KD of MS2 coat protein” value read?
Its value is 0.0193 µM.

With “AAGAAAGGAGGAUAUACAUGAGGAUCACCCAUGUAAAAGAAAGAAAAGGGAAAGAAAAGUAGAAGGCCUAAGAA [Usermaatre-meryamun Ramesses III]” as the sequence, how does the “apparent KD of MS2 coat protein” value read?
Its value is 0.0287 µM.

With “AACGAGUCAGGAUAUACAAAAAAUAAAUAAAUAAAAUAAAAGUAGAAGGGACAUGAGGAUCACCCAUGUAAAUA [JR_Exc004_Sub020]” as the sequence, how does the “apparent KD of MS2 coat protein” value read?
Its value is 0.044 µM.

“AAAAAAGGAGGAUAUACGAACAUGUCAAAAGACGUGAAGGGACAUGAGGAUCACCCAUGUAGAAGGCCUAAAAA [JL Part Open 34]” was tested. Which “apparent KD of MS2 coat protein” value did it give?
The value was 0.0608 µM.

For “AAAAAGUGAGGAUAUACGCGAACAAAAAUAAAAAAGAAAGCGUAGAAGGCACAUGAGGAUCACCCAUGUCCAAA [Alfred 64% 5]”, which “apparent KD of MS2 coat protein” value is on record?
The value was 0.0411 µM.

With “GAAAAUGGAGGAUAUACAUGAGGAUCACCCAUGUGUAUAAAAAAAUACACAAAAGAAAGUAGAAGGCCAUAAAG [Mat - Exclusion 3 - Mayanna mod - D101]” as the sequence, how does the “apparent KD of MS2 coat protein” value read?
The value was 0.114 µM.

For “AGUCAUACAGGAUAUACAUGAGGAUCACCCAUGUAUAUCCAAAAAAAAAAAUCCUCAUGUAGAAGGGUAUGACA [EX3 205: Super Stable 5]”, which “apparent KD of MS2 coat protein” value is on record?
The value was 0.0187 µM.

“AACUGACAUGAGGAUCACCCAUGUCAGGAUAUGCUUCAUAAAAAGAAACAAAAAUGAUGCAGAAGGGAUAUGGA [Design 35 :P Sub-opt 11]” was tested. Which “apparent KD of MS2 coat protein” value did it give?
The value was 0.0139 µM.

With “AAAAAGGGAGGAUAUACAUGAGGAUCACCCAUGUAGCAGACGAAAAAGAGUCUGUAAUGUAGAAGGCCCAAAAA [65%, Moding Exclusion3-cac2, 4]” as the sequence, how does the “apparent KD of MS2 coat protein” value read?
Its value is 0.0322 µM.

How did the “apparent KD of MS2 coat protein” value turn out when “UAUAUACAUGAGGAUCACCCAUGUCAGGAUAUGCGCCCAGAAUAUACAUAUGAUACAAGCAGAAGGGACACUAA [JR_Exc001_Sub205]” was run?
The value was 0.0493 µM.

For “AAAAAACAUGAGGAUCACCCAUGUGAGGAUAUGACGUAAAUAAAGAAAUAAGAAAUCGUCAGAAGGCACAAAAA [Mat - Exclusion 1 - Eli mod - D73]”, which “apparent KD of MS2 coat protein” value is on record?
Its value is 0.0417 µM.

For “AAGAAGCUAGGAUAUACUUGGGCAACAAAUAAACUAAUAUAACAUGAGGAUCACCCAUGUAGAAGGAGCAGAAA [JR_Exc002_Sub205]”, which “apparent KD of MS2 coat protein” value is on record?
Its value is 0.0398 µM.

Which “apparent KD of MS2 coat protein” value does the source give for “AAUAACACAGGAUAUACUAAAGAAAUGAAAAGAAAUAAAGAACAUGAGGAUCACCCAUGUAGAAGGGUGAAUAA [Shenshek]” here?
Its value is 0.186 µM.

With “AAAAAACAUGAGGAUCACCCAUGUAAGGAUAUGCUGGUGCGAAAGCACAAAAAAAACAGCAGAAGGUACAAAAA [66%, Wbt, 37]” as the sequence, how does the “apparent KD of MS2 coat protein” value read?
Its value is 0.0275 µM.

For “AAGAAGUCAGGAUAUGCUAAAGAAAUAAAAAUAAAUAAAGAACAUGAGGAUCACCCAUGUAGAAGGGACAAGAA [Sewadjkare Hori]”, which “apparent KD of MS2 coat protein” value is on record?
The value was 0.0333 µM.

Which “apparent KD of MS2 coat protein” value does the source give for “AAGAAACAUGAGGAUCACCCAUGUCAGGAUAUUCAAAAGAAAAGAAAAGAAAGAAGAAGAAGAAGGGACAAAGG [Neferkare II]” here?
Its value is 0.0661 µM.

With “UCCGGACAUGAGGAUCACCCAUGUGAGGAUAUAUAAAGUGGGACUGGAAACAGGCCCAAUAGAAGGCACAUGAC [Atatesin]” as the sequence, how does the “apparent KD of MS2 coat protein” value read?
Its value is 0.0219 µM.

How did the “apparent KD of MS2 coat protein” value turn out when “CUCUUGUCAGGAUAUCGAUGAAUAAUAAAACAGAGGAACAUUGAGAAGGGACAUGAGGAUCACCCAUGUAAAAC [May 83]” was run?
Its value is 0.0489 µM.

For “GAAGAACAUGAGGAUCACCCAUGUCAGGAUAUACAGAAGGGAAUAAAAUAACCUGAAAGUAGAAGGGACAAGAA [Ex 1 May 42]”, which “apparent KD of MS2 coat protein” value is on record?
Its value is 0.0572 µM.

Which “apparent KD of MS2 coat protein” value does the source give for “GUCAGCUGAGGAUAUACAGGUGAUGCCGCAGAACAAAAUAUACAUGAGGAUCACCCAUGUAGAAGGCGGAAGAC [Terian]” here?
Its value is 0.0441 µM.

For “AAAAAACAUGAGGAUCACCCAUGUGAGGAUAUGAAAAAACAAAAAAAAAAGUAAACAAUCAGAAGGCACAACAA [JR_Exc--1_Sub1211]”, which “apparent KD of MS2 coat protein” value is on record?
Its value is 0.0244 µM.

“AAUUCACAUGAGGAUCACCCAUGUAAGGAUAUCGAAAUAAAACUAAUCAAUAAACAAACGAGAAGGUACAAAAA [Exclusion 1 design 8]” was tested. Which “apparent KD of MS2 coat protein” value did it give?
Its value is 0.024 µM.

Which “apparent KD of MS2 coat protein” value does the source give for “AAAAAACAUGAGGAUCACCCAUGUAAGGAUAUCGUGCAGAAAAAAAAAAAAAACUGCACGAGAAGGUACAAGGA [Brourd - Exclusion 1 - Sub 1]” here?
The value was 0.0627 µM.

How did the “apparent KD of MS2 coat protein” value turn out when “AAAAUACAUGAGGAUCACCCAUGUGAGGAUAUGCUAUGGAAAAAUAAAAUAAAACAUAGCAGAAGGCACAAAAA [Mat - Exclusion 1 - Eli mod - D41]” was run?
Its value is 0.0734 µM.

“AAGAAGUGAGGAUAUGCUGCUCGUCACUUGCGUGAUGAGUAGCAGAAGGCACAUGAGGAUCACCCAUGUGGGAA [Modifying Chris (69%) Late G segment, early G segment 3]” was tested. Which “apparent KD of MS2 coat protein” value did it give?
The value was 0.111 µM.

Which “apparent KD of MS2 coat protein” value does the source give for “AAAAAUUGAGGAUAUACGUACAUGUCAAAAGACGUGAAGGGACAUGAGGAUCACCCAUGUAGAAGGCGAAAGAA [JL Neck Breaker 13]” here?
The value was 0.016 µM.

With “CUUAUGUGAGGAUAUGUACAGAAAAAACUGGGUGUAACUGUACAGAAGGCACAUGAGGAUCACCCAUGUGCAAA [EX4 388: S S Pseudoknot 13]” as the sequence, how does the “apparent KD of MS2 coat protein” value read?
The value was 0.0568 µM.

Which “apparent KD of MS2 coat protein” value does the source give for “CCCAUGUCAGGAUAUCAGUAGUAAAAAAAAAAAAUUACUACUGAGAAGGGACAUGAGGAUCACCCAUGUCCAAA [EX4 316: Super Stable 16]” here?
Its value is 0.0387 µM.

For “AAAUUGUCAGGAUAUCGUAGAACAGGGAAAACCUGGAGCUACGAGAAGGGACAUGAGGAUCACCCAUGUAAAAC [May 93]”, which “apparent KD of MS2 coat protein” value is on record?
The value was 0.0711 µM.
